Experimental data reported in the supplement of paper PMC10567573.

B1: RSPH3 (parent)
chain: LELQRQREARKRALARKQAQEQLR
B2: OAS1 (parent)
chain: LTVYAWERGSMKTHFNTAQGFRTV
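Further: lentivirally expressed fusions sorted by FACS into six bins by GFP to DsRed ratio, PSI derived from sequencing read proportions per bin multiplied by bin number.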

Variants of: B1
Assay: protein stability index of a GFP-peptide fusion (GPS, HEK-293T) (PSI 1-6); higher = more stable
Conditions: c terminus: a fixed tail appended
A19S gave a protein stability index of 4.17. A19D showed a protein stability index of 4.37. A19V showed a protein stability index of 3.27. Work on A19M yielded a protein stability index of 3.37.

Variants of: B2
Assay: as above
Conditions: c terminus: a fixed tail appended
For T2M, the protein stability index was 1.69. With T2G the protein stability index was 1.25. For T2W, the protein stability index was 2.55. In the case of T2Y, the protein stability index is reported as 2.45. Work on T2F yielded a protein stability index of 3.19. Variant T2D has a protein stability index of 1.8. Work on T2V yielded a protein stability index of 2.23. For T2N, the protein stability index was 1.84. Variant T2K has a protein stability index of 2.87. With T2Q the protein stability index was 1.86. T2L showed a protein stability index of 2.7. With T2P the protein stability index was 1.93. Variant T2S has a protein stability index of 2.21. Work on T2H yielded a protein stability index of 2.11. In the case of T2A, the protein stability index is reported as 2.03. T2R gave a protein stability index of 2.04. Variant T2C has a protein stability index of 1.6. With T2I the protein stability index was 2.45. Variant T2E has a protein stability index of 1.91. With R8D the protein stability index was 2.89. In the case of R8N, the protein stability index is reported as 2.65. Variant R8L has a protein stability index of 3.07. Variant R8K has a protein stability index of 1.53. For R8M, the protein stability index was 2.73. Variant R8F has a protein stability index of 2.26. Work on R8S yielded a protein stability index of 2.55. R8H showed a protein stability index of 2.13. R8P gave a protein stability index of 4.46. For R8Y, the protein stability index was 3.38. Work on R8I yielded a protein stability index of 2.15. R8C showed a protein stability index of 1.85. With R8Q the protein stability index was 2.56. Variant R8G has a protein stability index of 2.33. Variant R8E has a protein stability index of 2.4. In the case of R8T, the protein stability index is reported as 3.1. With R8A the protein stability index was 2.38. In the case of R8W, the protein stability index is reported as 2.69. In the case of R8V, the protein stability index is reported as 2.77. W6Q showed a protein stability index of 1.66. W6K showed a protein stability index of 1.53. In the case of W6E, the protein stability index is reported as 2.23. W6I showed a protein stability index of 2.41. Variant W6M has a protein stability index of 3.17. W6G gave a protein stability index of 1.73. Variant W6R has a protein stability index of 1.44. W6C showed a protein stability index of 1.61. W6P gave a protein stability index of 1.69. With W6L the protein stability index was 2.63. In the case of W6D, the protein stability index is reported as 1.87. In the case of W6H, the protein stability index is reported as 2.2. For W6N, the protein stability index was 2.06. Work on W6A yielded a protein stability index of 1.86. Variant W6S has a protein stability index of 1.59. With W6Y the protein stability index was 1.9. Variant W6V has a protein stability index of 2.29. In the case of W6F, the protein stability index is reported as 2.89. For W6T, the protein stability index was 2.45. For E7S, the protein stability index was 2.76. Variant E7P has a protein stability index of 2.46. For E7A, the protein stability index was 3.15. With E7F the protein stability index was 2.85. For E7L, the protein stability index was 3.71. Variant E7R has a protein stability index of 2.05. For E7H, the protein stability index was 2.41. In the case of E7K, the protein stability index is reported as 2.28. Work on E7M yielded a protein stability index of 3.48. With E7Y the protein stability index was 1.92. E7N gave a protein stability index of 1.99. For E7W, the protein stability index was 1.98. Work on E7C yielded a protein stability index of 3.64. E7G showed a protein stability index of 2.18. For E7I, the protein stability index was 2.63. Work on E7D yielded a protein stability index of 2.14. In the case of E7Q, the protein stability index is reported as 3.28. E7V showed a protein stability index of 3.45. E7T showed a protein stability index of 3.32. Work on Y4Q yielded a protein stability index of 1.86. In the case of Y4S, the protein stability index is reported as 1.83. Variant Y4E has a protein stability index of 1.97. Work on Y4G yielded a protein stability index of 2.76. Y4M showed a protein stability index of 1.51. With Y4H the protein stability index was 1.66. Variant Y4W has a protein stability index of 1.19. Y4N showed a protein stability index of 1.94. For Y4C, the protein stability index was 1.38. Variant Y4F has a protein stability index of 2.96. With Y4R the protein stability index was 1.77. With Y4D the protein stability index was 2.09. Variant Y4I has a protein stability index of 3.51. Work on Y4L yielded a protein stability index of 2.55. With Y4A the protein stability index was 2.01. In the case of Y4T, the protein stability index is reported as 1.59. Y4K gave a protein stability index of 2.16. In the case of Y4P, the protein stability index is reported as 2.31. A5N showed a protein stability index of 2.29. Work on A5C yielded a protein stability index of 3.68. Work on A5V yielded a protein stability index of 2.34. In the case of A5T, the protein stability index is reported as 2.75. A5S showed a protein stability index of 1.91. Work on A5P yielded a protein stability index of 2.19. Variant A5E has a protein stability index of 2.46. In the case of A5D, the protein stability index is reported as 2.59. A5L gave a protein stability index of 2.8. A5K showed a protein stability index of 1.63. A5H showed a protein stability index of 1.69. With A5Q the protein stability index was 1.54. A5R gave a protein stability index of 2.9. With A5G the protein stability index was 2.14. In the case of A5M, the protein stability index is reported as 2.06. Variant A5Y has a protein stability index of 3.25. Variant L1S has a protein stability index of 2.1. L1F showed a protein stability index of 2.48. Variant L1V has a protein stability index of 1.5. Variant L1A has a protein stability index of 2.32. Variant L1E has a protein stability index of 2.17. For L1W, the protein stability index was 2.79. Work on L1C yielded a protein stability index of 1.74. With L1M the protein stability index was 2.57. Work on L1R yielded a protein stability index of 2.28. Variant L1Q has a protein stability index of 1.79. L1N gave a protein stability index of 2. For L1H, the protein stability index was 2.13. Work on L1D yielded a protein stability index of 2.26. With L1G the protein stability index was 2.31. L1P gave a protein stability index of 2.14. L1K gave a protein stability index of 2.17. L1T gave a protein stability index of 2.09. In the case of L1Y, the protein stability index is reported as 2.19. Work on L1I yielded a protein stability index of 1.71. Variant V3W has a protein stability index of 2.92. For V3E, the protein stability index was 2.09. Variant V3L has a protein stability index of 2.49. V3H gave a protein stability index of 2.36. Work on V3I yielded a protein stability index of 3.14. V3Q showed a protein stability index of 2.09. Variant V3S has a protein stability index of 2.12. For V3Y, the protein stability index was 2.7. For V3F, the protein stability index was 3.04. With V3G the protein stability index was 1.91. V3T showed a protein stability index of 1.96. Variant V3K has a protein stability index of 2.12. Variant V3A has a protein stability index of 2.24. V3D showed a protein stability index of 2.57. V3R showed a protein stability index of 2.46. In the case of V3N, the protein stability index is reported as 2.05. With V3C the protein stability index was 2.02. With V3P the protein stability index was 1.77. V3M showed a protein stability index of 2.16. For G9D, the protein stability index was 2.6. Work on G9C yielded a protein stability index of 3.73. Variant G9P has a protein stability index of 3.81. For G9K, the protein stability index was 1.8. G9N showed a protein stability index of 2.48. G9I showed a protein stability index of 1.86. Work on G9T yielded a protein stability index of 2.55. G9Q showed a protein stability index of 1.87. In the case of G9H, the protein stability index is reported as 1.61. In the case of G9R, the protein stability index is reported as 2.02. For G9M, the protein stability index was 2.85. G9E showed a protein stability index of 2.7. Variant G9S has a protein stability index of 2.49. G9L gave a protein stability index of 2.91. With G9F the protein stability index was 3.19.
